# From US20130012432A1 (Novo Nordisk, published 2013)
# Positions of bridges follow the written chain, without caps; N, C: chain ends. Non-standard residues stand in square brackets, D forms with d. Groups on a side chain read outwards from the residue. Primed or numbered codes have the meaning given here. *: point of attachment. X2 = (2-(2-(16-(tetrazol-5-yl)hexadecanoylamino)ethoxy)ethoxy)acetyl, O=C(CCCCCCCCCCCCCCCc1nn[nH]n1)NCCOCCOCC(=O)*; X5 = NH(2-(2-(2-(17-carboxyheptadecanoylamino)ethoxy)ethoxy)ethyl), O=C(O)CCCCCCCCCCCCCCCCC(=O)NCCOCCOCCN*; X6 = (2-(2-(17-carboxyheptadecanoylamino)ethoxy)ethoxy)acetyl, O=C(O)CCCCCCCCCCCCCCCCC(=O)NCCOCCOCC(=O)*; X3 = (2-(2-(15-carboxypentadecanoylamino)ethoxy)ethoxy)acetyl, O=C(O)CCCCCCCCCCCCCCC(=O)NCCOCCOCC(=O)*; X4 = (2-(2-(16-carboxyhexadecanoylamino)ethoxy)ethoxy)acetyl, O=C(O)CCCCCCCCCCCCCCCC(=O)NCCOCCOCC(=O)*; biscarboxymethyl = Lys(biscarboxymethyl) = Nepsilon-bis(carboxymethyl)-L-lysine; biscarboxymethyl(4) = Lys(biscarboxymethyl) = N6-bis(carboxymethyl)-L-lysine; bis(carboxymethyl) = Lys(biscarboxymethyl) = N6-bis(carboxymethyl)-L-lysine; Palmitoyl(16-(5-tetrazolyl)) = O=C(CCCCCCCCCCCCCCCc1nnn[nH]1)*; biscarboxymethyl(3) = Nepsilon-bis(carboxymethyl) on Lys; biscarboxymethyl″ = N6-bis(carboxymethyl) on L-lysine; Lys(CH2CO2H)2 = N[C@@H](CCCCN(CC(=O)O)CC(=O)O)C(=O)O; C18 diacid = O=C(O)CCCCCCCCCCCCCCCCC(=O)*; C16 diacid = O=C(O)CCCCCCCCCCCCCCC(=O)*; Hyp = O=C(O)[C@@H]1C[C@@H](O)CN1; NTA = O=C(O)CN(CC(=O)O)CC(=O)*; hCys = N[C@@H](CCS)C(=O)O; Orn = NCCC[C@H](N)C(=O)O; Dab = NCC[C@H](N)C(=O)O; Dap = NC[C@H](N)C(=O)O; AEEA = NCCOCCOCC(=O)O
# How the values were obtained:
# [1] = target: T1, MC1 receptor (UniProt Q01726 1-317, limits assumed); assay: 125I-NDP-α-MSH displacement, BHK-MC1 membranes (Assay IV);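 further: membrane incubations stopped by filtration, retained radioactivity counted, Ki fitted by nonlinear regression to binding curves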
# T1 construct: whole, on cells; also called melanocortin receptor subtype 1; melanocortin receptor 1
# Method: The MC1 receptor binding assay was performed on BHK cell membranes stably expressing the MC1 receptor. […] Test compounds were dissolved in DMSO. […] Alternatively, HSA may be substituted with ovalbumin. The samples were incubated at 30° C. for 90 min. in Costar round-bottom microtiter plates. Incubation was terminated by filtration on a Packard harvester filtermate. […] The filters were washed with ice-cold 0.9% NaCl 8-10 times. […] The plates were counted in a Topcounter (1 min/well).
# (§1) The data were analysed by non-linear regression analysis of binding curves, using the Windows™ program GraphPad™ Prism (GraphPad Software, USA).
# [2] = target: T2, human MC4 receptor (human, UniProt P32245 1-332); assay: 125I-NDP-α-MSH displacement, BHK-human MC4 membranes (Assay V);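 further: Filter-retained radioactivity read by gamma counting, with affinity obtained through non-linear regression fitting of the binding curves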
# T2 construct: whole, on cells; Assayed as membranes of BHK cells stably expressing the receptor; also called melanocortin receptor subtype 4; melanocortin receptor 4
# T2 sequence (P32245 whole entry): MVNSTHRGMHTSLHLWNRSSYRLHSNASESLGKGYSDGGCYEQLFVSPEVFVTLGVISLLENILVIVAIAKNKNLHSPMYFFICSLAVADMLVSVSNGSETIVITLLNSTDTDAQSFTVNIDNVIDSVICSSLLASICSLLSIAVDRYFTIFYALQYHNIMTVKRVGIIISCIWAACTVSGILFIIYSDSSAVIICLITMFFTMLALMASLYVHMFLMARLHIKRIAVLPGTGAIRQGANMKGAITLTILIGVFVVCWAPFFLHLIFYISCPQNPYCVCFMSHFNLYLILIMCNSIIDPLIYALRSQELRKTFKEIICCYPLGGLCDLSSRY
# Method: The membranes were prepared from frozen or fresh cells that were homogenized in 20 mM HEPES pH 7.1, 5 mM MgCl₂ and 1 mg/ml bacitracin and centrifuged at 15000 rpm at 4° C., 10 min in a Sorvall RC 5B plus, SS-34 rotor. The supernatant was discarded, and the pellets were re-suspended in buffer, homogenized and centrifuged two more times. The final pellets were resuspended in the buffer mentioned above, and the protein concentration was measured and adjusted with buffer to 14 to 17 mg/ml and the membrane preparation were kept at −80° C. until assay. The assay was run directly on a dilution of this cell membrane suspension, without any further preparation. The BHK cell membranes are kept at −80° C. until assay, and the assay is run directly on a dilution of this cell membrane suspension, without further preparation. The suspension is diluted to give maximally 10% specific binding, i.e. to approx. 50-100 fold dilution. […] Test compounds were dissolved in DMSO and diluted in binding buffer. Radiolabelled ligand and membranes were diluted in binding buffer. The incubation was stopped by dilution with 2×100 μl ice-cold 0.9% NaCl. The radioactivity retained on the filters was counted using a Cobra II auto gamma counter.
# as §1
# T1 sequence (Q01726 whole entry): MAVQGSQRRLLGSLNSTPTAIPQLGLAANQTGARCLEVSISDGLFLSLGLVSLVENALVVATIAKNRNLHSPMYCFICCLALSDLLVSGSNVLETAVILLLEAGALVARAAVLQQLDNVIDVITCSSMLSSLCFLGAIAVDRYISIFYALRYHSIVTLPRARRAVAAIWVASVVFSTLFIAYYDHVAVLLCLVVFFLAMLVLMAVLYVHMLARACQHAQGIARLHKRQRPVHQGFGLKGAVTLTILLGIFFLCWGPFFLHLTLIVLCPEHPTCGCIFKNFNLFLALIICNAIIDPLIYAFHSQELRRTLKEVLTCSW
Binder,Ki [1] [nM],Ki [2] [nM]
Ac-[Orn]H[dF]RWDPPREK(biscarboxymethyl)K(X6)-NH2 (lactam 1-6),1940,0.8
Ac-[hCys]H[dF]RWCPPKE[Dap](NTA)K([AEEA-Palmitoyl(16-(5-tetrazolyl))])-NH2 (disulfide 1-6; SMILES CC(=O)N[C@H]1CCSSC[C@@H](C(=O)N2CCC[C@H]2C(=O)N2CCC[C@H]2C(=O)N[C@@H](CCCCN)C(=O)N[C@@H](CCC(=O)O)C(=O)N[C@@H](CNC(=O)CN(CC(=O)O)CC(=O)O)C(=O)N[C@@H](CCCCNC(=O)COCCOCCNC(=O)CCCCCCCCCCCCCCCc2nnn[nH]2)C(N)=O)NC(=O)[C@H](Cc2c[nH]c3ccccc23)NC(=O)[C@H](CCCNC(=N)N)NC(=O)[C@@H](Cc2ccccc2)NC(=O)[C@H](Cc2c[nH]cn2)NC1=O),177,0.6
Ac-[Orn]H[dF]RWDPSSSK(bis(carboxymethyl))SSK([AEEA-Palmitoyl(16-(5-tetrazolyl))])-NH2 (lactam 1-6),5610,0.9
Ac-EH[dF]RW[Orn]PPRDK(biscarboxymethyl)K(X3)-NH2 (lactam 1-6),3970,5.8
Ac-[hCys]H[dF]RWCPPKD[Dap](NTA)K([AEEA-Palmitoyl(16-(5-tetrazolyl))])-NH2 (disulfide 1-6; SMILES CC(=O)N[C@H]1CCSSC[C@@H](C(=O)N2CCC[C@H]2C(=O)N2CCC[C@H]2C(=O)N[C@@H](CCCCN)C(=O)N[C@@H](CC(=O)O)C(=O)N[C@@H](CNC(=O)CN(CC(=O)O)CC(=O)O)C(=O)N[C@@H](CCCCNC(=O)COCCOCCNC(=O)CCCCCCCCCCCCCCCc2nnn[nH]2)C(N)=O)NC(=O)[C@H](Cc2c[nH]c3ccccc23)NC(=O)[C@H](CCCNC(=N)N)NC(=O)[C@@H](Cc2ccccc2)NC(=O)[C@H](Cc2c[nH]cn2)NC1=O),7540,0.64
Ac-DH[dF]RW[Dab]PPRDK(biscarboxymethyl(4))K(X2)-NH2 (lactam 1-6),5140,1.33
Ac-DH[dF]RW[Dap]PPRDK(NTA)K(X2)-NH2 (lactam 1-6; SMILES CC(=O)N[C@H]1CC(=O)NC[C@@H](C(=O)N2CCC[C@H]2C(=O)N2CCC[C@H]2C(=O)N[C@@H](CCCNC(=N)N)C(=O)N[C@@H](CC(=O)O)C(=O)N[C@@H](CCCCNC(=O)CN(CC(=O)O)CC(=O)O)C(=O)N[C@@H](CCCCNC(=O)COCCOCCNC(=O)CCCCCCCCCCCCCCCc2nn[nH]n2)C(N)=O)NC(=O)[C@H](Cc2c[nH]c3ccccc23)NC(=O)[C@H](CCCNC(=N)N)NC(=O)[C@@H](Cc2ccccc2)NC(=O)[C@H](Cc2c[nH]cn2)NC1=O),7980,107
Ac-EH[dF]RW[Orn]PPHDK(biscarboxymethyl)K(X2)-NH2 (lactam 1-6),5170,3.58
Ac-DH[dF]RW[Orn]PPRDK(biscarboxymethyl(3))K([AEEA-Palmitoyl(16-(5-tetrazolyl))])-NH2 (lactam 1-6),2540,33
Ac-EH[dF]RW[Orn][dP][dP]RDK(biscarboxymethyl(3))K([AEEA-Palmitoyl(16-(5-tetrazolyl))])-NH2 (lactam 1-6),8840,4.6
Ac-[hCys]H[dF]RWCSPHEK(bis(carboxymethyl))K([AEEA-C18 diacid])-NH2 (disulfide 1-6),442,0.55
Ac-[hCys]S[dF]RWCPPKEK(biscarboxymethyl″)K(X2)-NH2 (disulfide 1-6),2060,10
Ac-[hCys]H[dF]RWCSPKEK(bis(carboxymethyl))K([AEEA-C16 diacid])-NH2 (disulfide 1-6),169,3.43
Ac-[Orn]H[dF]RWDPPREK(biscarboxymethyl)K(X2)-NH2 (lactam 1-6),2770,0.33
Ac-[Orn]H[dF]RWEPPRDK(bis(carboxymethyl))K([AEEA-Palmitoyl(16-(5-tetrazolyl))])-NH2 (lactam 1-6),433,3.53
Ac-[Dab]H[dF]RWDPPRDK(biscarboxymethyl(3))K([AEEA-Palmitoyl(16-(5-tetrazolyl))])-NH2 (lactam 1-6),5740,31
Ac-[Orn]H[dF]RWDPPHEK(biscarboxymethyl)K(X4)-NH2 (lactam 1-6),4830,1.05
Ac-[Dap]H[dF]RWDPPRDK(NTA)K([AEEA-Palmitoyl(16-(5-tetrazolyl))])-NH2 (lactam 1-6; SMILES CC(=O)N[C@H]1CNC(=O)C[C@@H](C(=O)N2CCC[C@H]2C(=O)N2CCC[C@H]2C(=O)N[C@@H](CCCNC(=N)N)C(=O)N[C@@H](CC(=O)O)C(=O)N[C@@H](CCCCNC(=O)CN(CC(=O)O)CC(=O)O)C(=O)N[C@@H](CCCCNC(=O)COCCOCCNC(=O)CCCCCCCCCCCCCCCc2nnn[nH]2)C(N)=O)NC(=O)[C@H](Cc2c[nH]c3ccccc23)NC(=O)[C@H](CCCNC(=N)N)NC(=O)[C@@H](Cc2ccccc2)NC(=O)[C@H](Cc2c[nH]cn2)NC1=O),5550,8.95
Ac-EH[dF]RW[Orn][Hyp][Hyp]RDK(biscarboxymethyl)K(X2)-NH2 (lactam 1-6),7230,3.25
Ac-DH[dF]RWKPPRD[Lys(CH2CO2H)2]K([AEEA-Palmitoyl(16-(5-tetrazolyl))])-NH2 (lactam 1-6; SMILES CC(=O)N[C@H]1CC(=O)NCCCC[C@@H](C(=O)N2CCC[C@H]2C(=O)N2CCC[C@H]2C(=O)N[C@@H](CCCNC(=N)N)C(=O)N[C@@H](CC(=O)O)C(=O)N[C@@H](CCCCN(CC(=O)O)CC(=O)O)C(=O)N[C@@H](CCCCNC(=O)COCCOCCNC(=O)CCCCCCCCCCCCCCCc2nnn[nH]2)C(N)=O)NC(=O)[C@H](Cc2c[nH]c3ccccc23)NC(=O)[C@H](CCCNC(=N)N)NC(=O)[C@@H](Cc2ccccc2)NC(=O)[C@H](Cc2c[nH]cn2)NC1=O),279,13
Ac-EH[dF]RW[Orn]PPRDK(biscarboxymethyl)K(X2)-NH2 (lactam 1-6),5240,1.42
Ac-EH[dF]RW[Orn]PPRDK(biscarboxymethyl)K(X6)-NH2 (lactam 1-6),4690,0.9
Ac-CEH[dF]RWGCPPKEEK([AEEA-C16 diacid])-NH2 (disulfide 1-8; SMILES CC(=O)N[C@H]1CSSC[C@@H](C(=O)N2CCC[C@H]2C(=O)N2CCC[C@H]2C(=O)N[C@@H](CCCCN)C(=O)N[C@@H](CCC(=O)O)C(=O)N[C@@H](CCC(=O)O)C(=O)N[C@@H](CCCCNC(=O)COCCOCCNC(=O)CCCCCCCCCCCCCCC(=O)O)C(N)=O)NC(=O)CNC(=O)[C@H](Cc2c[nH]c3ccccc23)NC(=O)[C@H](CCCNC(=N)N)NC(=O)[C@@H](Cc2ccccc2)NC(=O)[C@H](Cc2c[nH]cn2)NC(=O)[C@H](CCC(=O)O)NC1=O),7220,6.2
Ac-EH[dF]RW[Dab]PPRDK(biscarboxymethyl(3))K([AEEA-Palmitoyl(16-(5-tetrazolyl))])-NH2 (lactam 1-6),3420,39
Ac-[Orn]H[dF]RWDPSSSK(bis(carboxymethyl))SSK([AEEA-C18 diacid])-NH2 (lactam 1-6),141,0.8
Ac-[Orn]H[dF]RWDPSSSK(biscarboxymethyl)SSK(X3)-NH2 (lactam 1-6),3890,1.2
Ac-[Orn]H[dF]RWDPPHEK(biscarboxymethyl)K(X6)-NH2 (lactam 1-6),7370,1.8
Ac-[Dab]H[dF]RWDPSSSK(biscarboxymethyl(3))SS-X5 (lactam 1-6),9130,10.8
